Measurements as given in US20110003880A1, “Compositions and methods for inhibiting optic nerve damage” (priority 2006, published 2011).

Legend:
PAD 2 = assay: Modulation of intracellular calcium and PAD 2 expression in pressure treated astrocytes; assay type: cell-based, rat; conditions: astrocytes subjected to 40 mm Hg for 5 hours; 50-200 nM
Experimental: FIGS. 9A-9B. Modulation of intracellular calcium concentration and PAD 2 expression. The astrocytes were subjected to 40 mm Hg for 5 hours and restored to normal pressure except controls. Pressure treated cells were subjected to (FIG. 9A) indicated concentrations of BAPTA-AM for 24 hours or (FIG. 9B) indicated concentrations of Thapsigargin. Total protein were extracted and transferred on PVDF membrane after SDS-PAGE separation and probed with antibodies to PAD 2 and GPDH, secondary antibodies coupled with IR-700 dye allowed scanning and detection.
Astrocytes from Sprague Dawley rats (Harlan, Indianapolis, Ind.) brain cortex were used for these studies. Mixed glial cell suspensions were prepared from the P3 rat cortex regions following published procedures (Fuss, B., et al., Dev Biol., 218:259-74 (2000)) from which enriched GFAP positive cells were obtained using immunopanning (Yang, P., et al., Brain Res Brain Res Protoc. 12:67-76 (2003)). The astrocytes were exposed to a pressure of 40 mm of Hg for five hours (Yang, J. L., et al., Exp Eye Res. 56:567-74 (1993); Salvador-Silva, M., et al., Glia. 45:364-77 (2004)). Briefly, the cells plated in six well plates (Costar, Cambridge, Mass., USA) at a density of 3-10×10^3 cells/well and grown to semiconfluence in 2 days were incubated with serum free medium overnight. […]

PAD2 [1] = assay: Anti-PAD2 Western analysis of optic nerve from glaucomatous donors; assay type: in vivo, human; conditions: 85M POAG donor, trabeculectomy plus verapamil; compared with other POAG eyes (86M and 76F)
Experimental: FIGS. 5A-5D. Elevated level of PAD2 and citrulline in response to pressure. […] Protein extracted from the optic nerve of cadaver Caucasian donor eyes, age and gender are as indicated. All glaucomatous donors suffered elevated IOP and were subjected to surgical intervention except the 76F donor. The 85M donor also received verapamil, a calcium modulator. FIG. 5B, Representative Western analyses with anti-PAD2 of rat brain astrocytes subjected to 40 mm Hg pressure for 5 h then returned to atmospheric pressure for up to 4 days as indicated. FIG. 5C, Representative Western analysis with anti-citrulline of protein extracts (5 μg) from astrocytes subjected to elevated pressure as in FIG. 5B. […]
For these analyses previously described mouse monoclonal antibody (mAb) against PAD2 (Koike, H., et al., Biosci Biotechnol Biochem. 58:2286-7(1994); Koike, H., et al., Biosci Biotechnol Biochem. 59:552-4(1995)) was used. […] For quantitative Western analyses, anti-mouse and anti-rabbit secondary antibody linked to 700 nm or 800 nm IR-dyes were used on an Odyssey Infrared Imaging system according to the manufacturer (Li-Cor Biosciences, Lincoln, Neb.). […]
Other donor eyes that had undergone either surgical or combined surgical and pharmacological intervention to relieve elevated IOP were also analyzed for PAD2. […]

PAD2 [2] = assay type: cell-based, rat
Experimental: Astrocytes from Sprague Dawley rats (Harlan, Indianapolis, Ind.) brain cortex were used for these studies. Mixed glial cell suspensions were prepared from the P3 rat cortex regions following published procedures (Fuss, B., et al., Dev Biol., 218:259-74 (2000)) from which enriched GFAP positive cells were obtained using immunopanning (Yang, P., et al., Brain Res Brain Res Protoc. 12:67-76 (2003)). The astrocytes were exposed to a pressure of 40 mm of Hg for five hours (Yang, J. L., et al., Exp Eye Res. 56:567-74 (1993); Salvador-Silva, M., et al., Glia. 45:364-77 (2004)). Briefly, the cells plated in six well plates (Costar, Cambridge, Mass., USA) at a density of 3-10×10^3 cells/well and grown to semiconfluence in 2 days were incubated with serum free medium overnight. A closed pressurized chamber (5% carbon dioxide) equipped with a manometer was used to subject the cells to elevated pressure. Cells were placed in the chamber and the pressure was elevated to 40 mm Hg. The chamber was subsequently placed in a tissue culture incubator at 37° C. Control cells from identical passage of cell lines were simultaneously incubated in a tissue culture incubator at atmospheric pressure at 37° C. The cells were incubated for 5 h or 1-4 days after pressure treatment. After incubation, cells were trypsinized and subjected to culture or Western analyses. For culture, the cells were plated on a cover slip and allowed 16 hours recovery period and subjected to immunohistochemistry using mouse monoclonal PAD2 and rabbit polyclonal GFAP antibodies. The cells were permeabilized with 200 μl of 0.2% Triton X-100 in phosphate buffer saline pH 7.5 for 1 hour after fixation with 4% paraformaldehyde for 1 hour. Western analyses were performed using antibodies to PAD2 and citrulline as described above.
For treatment of rat cortex astrocytes, shRNA against PAD2 (OpenBiosystems, Cat. #RHS 1764-9214220) was procured from OpenBiosystems in pShag Magic version 2.0 vector (OpenBiosystems). This shRNA contains the sequence (5′[…]′3) (SEQ ID NO: 7) from the coding region of PAD2 (see FIG. 14). For a negative control, we used a non-silencing shRNA sequence cloned into pShag Magic 2.0 (OpenBiosystems, cat. #RHS1703) from OpenBiosystems verified to contain no homology to known mammalian genes. About 30% confluent cells (3000 primary astrocytes) (Lee, J. H., et al., Glia., 50:66-79 (2005)) were transfected using SuperFect transfection reagent, purified vector (5 μg) DNA (Qiagen, Valencia, Calif.) and the manufacturer's recommended protocols. The post transfected astrocytes were selected on geneticin (10 μg/μl). The primary astrocytes were subjected to pressure (40 mm of Hg) and transfected with shRNA on plates immediately after they were brought to normal atmospheric pressure.

[3] = astrocytes subjected to 40 mm Hg, transfected with shRNA immediately after return to atmospheric pressure, vs non-specific shRNA

CC(=O)OCOC(=O)CN(CC(=O)OCOC(C)=O)c1ccccc1OCCOc1ccccc1N(CC(=O)OCOC(C)=O)CC(=O)OCOC(C)=O [BAPTA-AM]
expression of PAD 2 protein (Western) (PAD 2): reduces expression of PAD 2 protein

C/C=C(/C)C(=O)O[C@H]1C(C)=C2[C@H]([C@@H]1OC(=O)CCCCCCC)[C@@](C)(OC(C)=O)C[C@H](OC(=O)CCC)[C@@]1(O)[C@H]2OC(=O)[C@@]1(C)O [Thapsigargin]
expression of PAD 2 protein (Western) (PAD 2): seems not to show a great increase in PAD 2 expression

COc1ccc(CCN(C)CCCC(C#N)(c2ccc(OC)c(OC)c2)C(C)C)cc1OC (centres unmarked) [verapamil]
optic nerve PAD2 level (Western, relative to GPDH) (PAD2 [1]): appeared lower

B1: PAD2 specific shRNA: shRNA against PAD2 (OpenBiosystems, Cat. #RHS 1764-9214220) in pShag Magic version 2.0 vector, SEQ ID NO: 7 (nucleic acid)
chain: TGCTGTTGACAGTGAGCGACAGCCTTGACTCATTTGGAAATAGTGAAGCCACAGATGTATTTCCAAATGAGTCAAGGCTGGTGCCTACTGCCTCGGA
Differences in cell morphology due to reduction in mRNA (PAD2 [2]): not observed
PAD2 expression (anti-PAD2 Western analysis) (PAD2 [2]; [3]): reduced PAD2 expression
citrullination (anti-citrulline Western analysis) (PAD2 [2]; [3]): reduced citrullination
PAD 2 by immunohistochemical analysis (PAD2 [2]; isolated astrocytes, 5 hours or 4 days at atmospheric pressure after 40 mm Hg, compared to untreated group): reduced
PAD2 mRNA (Northern analysis of total RNA) (PAD2 [2]; pressure treated astrocytes transfected with shRNA, within the sensitivity of detection): completely removed
